± gives the uncertainty stated by the source.
Test: amyloid nucleation score (Sup35N fusion, yeast selection) (log enrichment); library NNK2; higher = more nucleation; inactive = no reads after selection
In short: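 Growth for 7 days at 30°C on medium lacking adenine and uracil followed a 24-hour induction with 100 μM copper sulfate of psi-negative yeast expressing peptides of 20 random codons fused to Sup35N. Input and output plasmid inserts were sequenced with Illumina, and sequences with under 100 input reads were excluded. Nucleation score is the DiMSum log enrichment of output over input reads, centred on the mode score of non-aggregating sequences.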

| Substance | amyloid nucleation score |
| --- | --- |
| FGFLPSVIWEASDIGSDCLE | 0.072 ± 1.1 |
| FGFWSPATVNNVRALIKDCV | -0.409 ± 0.53 |
| FGIHHCLVCRLNLDFISGVD | -0.877 ± 0.62 |
| FGMRTGWREGGESCSTHERG | 1.14 ± 0.38 |
| FGMTRRETWNLSGCESITCT | 0.593 ± 0.45 |
| FGNGDKSGMIGINVNLLCRM | 5.73 ± 0.034 |
| FGPSRYTRSVFSVEQTSL | -0.114 ± 1 |
| FGYLVIKFVTYVRRRTNTYN | -0.113 ± 0.56 |
| FHAYTGCVWVTCQYGWRRDT | 1.9 ± 0.15 |
| FHCNPIS | -0.277 ± 1.1 |
| FHGAYIGASSVNDPSVSD | 5.322 ± 0.04 |
| FHHSHANSNVSRGIDIFGAV | -0.454 ± 0.32 |
| FHKKAMIRSFCPKEIDLGSM | inactive |
| FHLIALNCRWADDLFIGSGV | 0.374 ± 0.62 |
| FHMVIGWYICLICNGFYTFF | inactive |
| FHRPWTFLLLNLPTRGFFLR | inactive |
| FIDDSDFKYSYSAQFVCLID | 4.91 ± 0.1 |
| FIELMCWRSH | -0.315 ± 0.45 |
| FIERILAVSCFAYFVKPSTV | 5.44 ± 0.042 |
| FIFIMGIFERLH | -1.54 ± 1.1 |
| FIIIVLNNSVFRMKCALASI | -0.202 ± 1.1 |
| FISMLAISDIRHALDWHTSV | 0.979 ± 0.17 |
| FISSADLVTNMPRI | -0.8 ± 0.31 |
| FISTGRRQTFQTRTRSNLWV | 0.195 ± 0.37 |
| FIWSYVLSRGSV | -1.03 ± 0.31 |
| FKFLADVVPWFSSRWSHLMM | -0.867 ± 0.37 |

| Substance | amyloid nucleation score |
| --- | --- |
| FKGSDHCSKCRQVGEFVFST | -0.707 ± 1.1 |
| FKGSWHAFECEAYEYAWV | -0.018 ± 1.1 |
| FKKAMHKPKSWAFSEKGRTN | -1.27 ± 0.61 |
| FKRRCVDYNFSVVILLH | -2.03 ± 0.76 |
| FKSLVVSLCIPSDMNNLKCS | -0.474 ± 0.79 |
| FKWALFG | inactive |
| FLAILWLFMLGKVSGCVDKW | -0.155 ± 0.49 |
| FLCYKISSFVSICKQQEAHA | -0.064 ± 1.1 |
| FLFNVSGLYIGWSLVPTNLD | -0.33 ± 0.76 |
| FLFSIF | inactive |
| FLGWPGIRQCLLFVANNRGR | -0.448 ± 0.76 |
| FLIFINMGIRRIRHV | -1.37 ± 0.75 |
| FLIFVFLLYGPEMSDYCWTF | 0.14 ± 1 |
| FLINFAMIISIFRLSYHRPV | -0.599 ± 0.55 |
| FLKCNLTVDLIVMMKNIFSY | 1.02 ± 0.39 |
| FLLCIRLRVNNNVRNN | -0.763 ± 1.1 |
| FLLSV | inactive |
| FLLWIHF | 1.04 ± 0.44 |
| FLMEVSLTLSFLERSNVLKG | 3.8 ± 0.067 |
| FLNDI | inactive |
| FLRILFFGLGVMLQIRFFVH | -0.569 ± 0.37 |
| FLSCQTYRKNQADNADASSI | -0.076 ± 0.56 |
| FLSLLR | -1.05 ± 0.42 |
| FLTLATSTCGPACVW | 6.99 ± 0.07 |
| FLWVLIQANYLLTEMELSSG | -0.447 ± 1.1 |
| FLYLALCKI | 2.49 ± 0.14 |

| Substance | amyloid nucleation score |
| --- | --- |
| FLYPRYLVVMKHVLAGRCVA | inactive |
| FMEGTRHCGKYFSC | 0.938 ± 0.26 |
| FMFRQCSQFMMGYYLLNG | 0.313 ± 0.46 |
| FMGSSIGLSSCPLEDTYVLP | -0.403 ± 1 |
| FMKSNWIGTT | -0.909 ± 0.39 |
| FMLNYERL | -1.08 ± 0.42 |
| FMSICR | 1.47 ± 0.4 |
| FMWVNS | inactive |
| FNCHCSLSLVNHLASFTLSF | 1.8 ± 0.16 |
| FNCPRSAMIVNQRHRILSGV | -0.057 ± 0.43 |
| FNGSYASILKTSNRDTFDAL | 0.61 ± 0.15 |
| FNIERCLLISGMLCSPAVEL | -0.602 ± 1.1 |
| FNKNDNYYSAR | -0.753 ± 0.78 |
| FNLSGWLMSSIRNNFLVPG | -1.01 ± 0.61 |
| FNVFFAS | 5.97 ± 0.055 |
| FNVSVCCG | 0.607 ± 0.65 |
| FPCAMYTEWHVAVTVSICYG | -0.36 ± 0.76 |
| FPFKILSVKPH | 3.45 ± 0.14 |
| FPGPRRLSWFPGVQRVSMMI | -0.243 ± 0.79 |
| FPHLFKSKNPSRNMNSTSPG | inactive |
| FPLIDTYLEFMEPNGYWNSS | 0.516 ± 0.81 |
| FPLWSCSHTIINML | 5.858 ± 0.037 |
| FPTFVAMW | 0.35 ± 0.23 |
| FQHNVAIKRWRRLADSLYSV | 0.723 ± 0.57 |
| FQLYT | 0.238 ± 0.29 |
| FRCHYFNWNDFALAVSFSKE | -0.33 ± 0.38 |

| Substance | amyloid nucleation score |
| --- | --- |
| FRDQGIFIHLWS | 0.781 ± 0.44 |
| FRFANRVTIKSFLGV | inactive |
| FRFFCHISMNLGTLWRLDCL | -0.405 ± 0.44 |
| FRHCTFRLFHAHK | -0.378 ± 1 |
| FRLFVKNKGRELICDLWVCT | -0.024 ± 1 |
| FRMGY | inactive |
| FRNPHYASHGQYHYRFNMRY | inactive |
| FRQFS | 0.285 ± 1 |
| FRQRDKRVTEMTPAERGGQ | 2.79 ± 0.091 |
| FRVKLTLRFLNITECCLDYL | 3.29 ± 0.095 |
| FRVVRFVQTGSTFSIARFIK | -0.83 ± 0.39 |
| FSACFGCFVLAKSNHY | 0.955 ± 0.25 |
| FSAVHAHQQNLLVVFYTCCA | 3.97 ± 0.08 |
| FSCEACIFLLYSYMFMNL | -0.522 ± 0.55 |
| FSDDLVRDV | -0.505 ± 0.28 |
| FSDNTVNTQQVEGIYQIDPN | -0.705 ± 0.46 |
| FSGKMN | 0.301 ± 0.57 |
| FSLCDILVLVNTNAGWAAFD | -0.352 ± 1 |
| FSLEMTLFWPVFRLCPISSL | 0.606 ± 0.66 |
| FSLHKCNVRLGISNGT | -0.276 ± 0.48 |
| FSLPFC | 0.246 ± 0.49 |
| FSLQCPFSERKIYRRLCSPS | inactive |
| FSMLF | -0.462 ± 0.56 |
| FSNTYHFCISNYMWLNEVLM | 1.36 ± 0.19 |
| FSRWVVVLVVQLWSLALRSN | 0.369 ± 0.65 |
| FSSSNSIFKFVLNVRCTGVK | 5.045 ± 0.049 |

| Substance | amyloid nucleation score |
| --- | --- |
| FSSSYCNVYYWFYMFFHWG | 1.25 ± 0.14 |
| FSTCVVSGSSLYCGGLTLVH | inactive |
| FSVFTD | -0.678 ± 0.61 |
| FSVRLISFRSSLLLMSQDLL | 0.138 ± 1.1 |
| FSWASAQLIHSV | 0.59 ± 0.64 |
| FSYNMACLNKLLSLSLYRFS | -1.29 ± 0.44 |
| FTAMNIGNACMESQALPWNL | 0.198 ± 0.65 |
| FTCDSSLYAES | -0.485 ± 0.41 |
| FTCFFLVLRVKSLLMVSAVG | 6.34 ± 0.079 |
| FTDRDLGNLTYDDRFDICNY | -1.75 ± 0.76 |
| FTEFPNFNDMSDRVV | -0.92 ± 0.64 |
| FTESCQCS | -0.08 ± 0.31 |
| FTGRETFQRKRFAAVLSSSV | -0.062 ± 0.65 |
| FTIIGAAIKRVVVLTVSPYY | inactive |
| FTNCEYNVDISCVSGLSYSI | inactive |
| FTQTSTVPSKETALALNLMR | 0.688 ± 0.57 |
| FTRSWFLYTT | 3.85 ± 0.095 |
| FVCPFVVCYAGIGGRGGYVM | 0.173 ± 1.1 |
| FVDWVMCIVMYVRLR | -0.87 ± 0.41 |
| FVFIYYIVLQHATANHSMQA | 4.921 ± 0.044 |
| FVGCVNLRLCSSITTAWSSL | 8.346 ± 0.046 |
| FVGDTIQVVIWLMIIYFWFF | 0.959 ± 0.74 |
| FVIVFVRRSNTFLAPQKVWG | 1.6 ± 0.14 |

Source: the supplement of paper PMC12042874
